Test results from article PMC5014329.

What was measured:
[1] = target: M2 (amino acids 42–141) (Streptococcus pyogenes (group A Streptococcus), strain M2 (AP2)); test: crystal structure
[2] = target: M22 (42–120) (Streptococcus pyogenes (group A Streptococcus), strain M22 (Sir22)); test: crystal structure

Work on “M2 (amino acids 42–141) (domain or fragment)” yielded a stoichiometry N [1] of 2.
M22 (42–120) (domain or fragment) was tested, and the stoichiometry N [2] was 2.
